Laboratory results as given in patent US20100266609A1 (UCB, published 2010).
One block for each binder: values may come before it.

Key:
[1] = molecular target: T1, Recombinant IL-17A/F heterodimer (human); experiment: SPR (Biacore 3000, 25°C), antibody captured by anti-mouse IgG Fc, cytokine titrated from 25 nM
T1 construct: also called human recombinant IL-17A/F heterodimer; heterodimer A/F
Experimental: All experiments were performed at 25° C.
Double referenced background subtracted binding curves were analysed using the BIAevaluation software (version 3.2) following standard procedures. Kinetic parameters were determined from the fitting algorithm.

IL-17 B = molecular target: T2, IL-17 B (UniProt Q9UHF5 21-180, limits assumed); experiment: SPR (Biacore 3000), antibody captured by anti-human IgG Fc, cytokine in solution
T2 sequence (looked up): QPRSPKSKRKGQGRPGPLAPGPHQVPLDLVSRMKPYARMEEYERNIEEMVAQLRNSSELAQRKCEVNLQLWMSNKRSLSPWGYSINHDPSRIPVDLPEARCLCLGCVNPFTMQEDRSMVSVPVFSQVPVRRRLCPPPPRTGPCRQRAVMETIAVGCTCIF
Experimental: (§1) BIA (Biamolecular Interaction Analysis) was performed using a Biacore 3000 (Biacore AB). All experiments were performed at 25° C. Affinipure Fc Fragment goat anti-human IgG, Fc fragment specific (Jackson ImmunoResearch) was immobilised on a CM5 Sensor Chip via amine coupling chemistry to a capture level of ≈6000 response units (RUs). HSS-EP buffer (10 mM HEPES pH 7.4, 0.15 M NaCl, 3 mM EDTA, 0.005% Surfactant P20, Biacore AB) was used as the running buffer with a flow rate of 10 μl/min. […] The surface was regenerated by a 30 μL injections of 40 mM HCl, followed by one 5 μL injection of 5 mM NaOH.
(§2) Background subtraction binding curves were double referenced and analysed using the BIAevaluation software (version 3.2) following standard procedures. Kinetic parameters were determined from the fitting algorithm.

IL-17 C = molecular target: T3, IL-17 C (UniProt Q9P0M4 19-197, limits assumed); experiment: as above
T3 sequence (looked up): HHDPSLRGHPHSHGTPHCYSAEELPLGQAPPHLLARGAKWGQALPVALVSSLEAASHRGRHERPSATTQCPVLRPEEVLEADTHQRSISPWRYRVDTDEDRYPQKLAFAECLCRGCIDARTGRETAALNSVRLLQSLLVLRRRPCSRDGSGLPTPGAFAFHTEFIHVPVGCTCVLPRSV
Experimental: as §1, §2

IL-17 E = molecular target: T4, IL-17 E (UniProt Q9H293 33-177, limits assumed); experiment: as above
T4 sequence (looked up): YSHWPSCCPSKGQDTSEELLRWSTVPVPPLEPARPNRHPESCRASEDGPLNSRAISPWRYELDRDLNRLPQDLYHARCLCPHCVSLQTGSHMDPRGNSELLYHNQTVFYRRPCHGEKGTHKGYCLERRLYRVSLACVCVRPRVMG
Experimental: as §1, §2

IL-17 D = molecular target: T5, IL-17 D (UniProt Q8TAD2 18-202, limits assumed); experiment: as above
T5 sequence (looked up): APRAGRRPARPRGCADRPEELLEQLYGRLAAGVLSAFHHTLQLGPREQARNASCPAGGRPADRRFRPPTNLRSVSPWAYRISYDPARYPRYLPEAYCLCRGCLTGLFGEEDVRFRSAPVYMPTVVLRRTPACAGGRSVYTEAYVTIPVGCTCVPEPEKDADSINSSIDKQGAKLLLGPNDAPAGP
Experimental: as §1, §2

T1 sequence (chain, as listed by the source limits assumed): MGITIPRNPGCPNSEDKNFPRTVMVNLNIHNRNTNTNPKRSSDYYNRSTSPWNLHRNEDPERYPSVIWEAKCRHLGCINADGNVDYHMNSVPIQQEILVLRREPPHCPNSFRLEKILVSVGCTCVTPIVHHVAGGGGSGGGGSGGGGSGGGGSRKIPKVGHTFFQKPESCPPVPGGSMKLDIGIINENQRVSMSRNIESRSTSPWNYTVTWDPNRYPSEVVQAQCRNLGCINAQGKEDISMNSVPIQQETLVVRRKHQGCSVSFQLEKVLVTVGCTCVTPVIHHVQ

Kd [1]: 0.116 nM
B1: Antibody CA028-0496 (murine IgG1 constant regions) (antibody, V domains shown)
VH: EVQLVESGGGLVQPGGSLRLSCAASGFTFSDYNMAWVRQAPGKGLEWVATITYEGRNTYYRDSVKGRFTISRDNAKNSLYLQMNSLRAEDTAVYYCASPPQYYEGSIYRLWFAHWGQGTLVTVSS
VL: AIQLTQSPSSLSASVGDRVTITCRADESVTTLMHWYQQKPGKAPKLLIYLVSNRESGVPSRFSGSGSGTDFTLTISSLQPEDFATYYCQQTWSDPWTFGQGTKVEIKR
notes: not shown: murine IgG1 heavy chain constant region; murine light chain constant region

B2: Antibody CA028-0496 (human IgG4 constant regions) (antibody, V domains shown)
VH: B1 VH
VL: B1 VL
notes: human gamma-4 constant region with the hinge mutation S241P and human C-kappa (Km3), made in CHO cells
binding result (IL-17 B): no binding (tested: doubling dilutions from 50 nM to sub nM) | binding result (IL-17 C): no binding (tested: doubling dilutions from 50 nM to sub nM) | binding result (IL-17 E): no binding (tested: doubling dilutions from 50 nM to sub nM) | binding result (IL-17 D): no binding (tested: doubling dilutions from 50 nM to sub nM)
